From patent publication US20240052034A1 (PANDION OPERATIONS, published 2024)

What was measured:
Test in all cases: ELISA: plate-coated PD-1, detection by anti-kappa-HRP
[1] = target: T1, human PD-1 (human, UniProt Q15116 25-167, limits assumed)
T1 construct: also called huPD-1

[2] = target: T2, mouse PD-1 (mouse, UniProt Q02242 25-167, limits assumed)
T2 sequence (looked up): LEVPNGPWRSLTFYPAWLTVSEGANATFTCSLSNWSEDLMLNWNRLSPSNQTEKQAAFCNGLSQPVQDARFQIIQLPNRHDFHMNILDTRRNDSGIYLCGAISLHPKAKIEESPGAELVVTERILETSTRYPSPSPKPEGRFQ

[3] = target: T3, cynomolgus PD-1 (cynomolgus, UniProt B0LAJ3 25-170)
T3 construct: also called cyno PD-1
T3 sequence (B0LAJ3 entry or part of it limits assumed): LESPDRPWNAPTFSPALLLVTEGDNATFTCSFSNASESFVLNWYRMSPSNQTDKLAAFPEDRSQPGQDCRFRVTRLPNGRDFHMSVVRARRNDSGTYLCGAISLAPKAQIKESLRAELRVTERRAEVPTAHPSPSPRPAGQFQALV

Measured: binding result

T1 sequence (Q15116 25-167 limits assumed): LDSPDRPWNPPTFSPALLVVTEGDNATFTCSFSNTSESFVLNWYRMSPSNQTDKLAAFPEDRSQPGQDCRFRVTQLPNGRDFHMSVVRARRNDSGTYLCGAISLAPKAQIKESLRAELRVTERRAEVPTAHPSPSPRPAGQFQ

B1: PD1AB69 (bispecific antibody, human IgG1, kappa)
heavy: EVQLLESGGGLVQPGGSLRLSCAASGFTFSSYDMSWVRQAPGKGLEWVSGITISGGSTYYADSVKGRFTISRDNSKNTLYLQMNSLRAEDTAVYYCARGRGGSGWLDYWGQGTTVTVSSASTKGPSVFPLAPSSKSTSGGTAALGCLVKDYFPEPVTVSWNSGALTSGVHTFPAVLQSSGLYSLSSVVTVPSSSLGTQTYICNVNHKPSNTKVDKKVEPKSCDKTHTCPPCPAPEAAGAPSVFLFPPKPKDTLMISRTPEVTCVVVDVSHEDPEVKFNWYVDGVEVHNAKTKPREEQYNSTYRVVSVLTVLHQDWLNGKEYKCKVSNKALPAPIEKTISKAKGQPREPQVYTLPPSREEMTKNQVSLTCLVKGFYPSDIAVEWESNGQPENNYKTTPPVLDSDGSFFLYSKLTVDKSRWQQGNVFSCSVMHEALHNHYTQKSLSLSPGGGGSEGGGSEGGGSEDIQMTQSPSSLSASVGDRVTITCQASRDILNYLAWYQQKPGKAPKLLIYAASSLQSGVPSRFSGSGSGTDFTLTISSLQPEDFATYYCQQSYSTPPTFGCGTKVDIKGGGGSGGGGSGGGGSGGGGSEVQLVQSGAEVKKPGASVKVSCKASGYSFTTYYMHWVRQAPGQCLEWMGIINPSGGSTSYAQKFQGRVTMTRDTSTSTVYMELSSLRSEDTAVYYCASGWVYWGQGTLVTVSS
light: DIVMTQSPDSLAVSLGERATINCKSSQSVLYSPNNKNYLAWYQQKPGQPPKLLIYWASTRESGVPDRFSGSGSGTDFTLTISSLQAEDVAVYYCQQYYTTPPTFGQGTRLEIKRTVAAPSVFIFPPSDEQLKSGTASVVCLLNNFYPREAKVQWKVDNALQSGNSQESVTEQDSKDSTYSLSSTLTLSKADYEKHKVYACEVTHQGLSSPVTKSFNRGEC
binds: [1] | [2] | [3]
